{"source": "the supplement of paper PMC7125110", "parents": {"B1": {"name": "glmS ribozyme (parent)", "chain": "AUAAAAGCGCCAGAACUACAGAAAUGUAGUUGACGAGGAGGAGGUUUAUCGAAUUUUCGGCGGAUGCCUCCAAA"}}, "conditions_in_all_cases": "with glucosamine-6-phosphate", "key": {"glucosamine-6-phosphate [1]": {"variants_of": "B1", "assay": "kcat; higher = faster cleavage; RNA array", "summary_of_the_method": "(§1)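 A hybridised Cy3 probe tracked barcoded ribozyme variants, transcribed in situ by E. coli RNA polymerase on sequenced MiSeq chips, at 37 °C. The variants received 40 μM to 10 mM glucosamine-6-phosphate in HEPES/KCl/Mg(OAc)2 buffer. kobs came from decay fits and kcat and KM from weighted Michaelis–Menten fits.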"}, "glucosamine-6-phosphate [2]": {"variants_of": "B1", "assay": "self-cleavage kobs at 40 uM GlcN6P; higher = faster cleavage; RNA array", "summary_of_the_method": "as §1"}, "glucosamine-6-phosphate [3]": {"variants_of": "B1", "assay": "self-cleavage kobs at 2500 uM GlcN6P; higher = faster cleavage; RNA array", "summary_of_the_method": "as §1"}, "glucosamine-6-phosphate [4]": {"variants_of": "B1", "assay": "KM; higher = weaker cofactor use; RNA array", "summary_of_the_method": "as §1"}, "glucosamine-6-phosphate [5]": {"variants_of": "B1", "assay": "self-cleavage kobs at 160 uM GlcN6P; higher = faster cleavage; RNA array", "summary_of_the_method": "as §1"}, "glucosamine-6-phosphate [6]": {"variants_of": "B1", "assay": "self-cleavage kobs at 640 uM GlcN6P; higher = faster cleavage; RNA array", "summary_of_the_method": "as §1"}, "glucosamine-6-phosphate [7]": {"variants_of": "B1", "assay": "self-cleavage kobs at 10000 uM GlcN6P; higher = faster cleavage; RNA array", "summary_of_the_method": "as §1"}}, "note": "± gives the standard error. For some of these results: This sample holds only a part of the variants without activity.", "data": [{"variant": "C10U U56C", "values": [{"measurement": "kcat", "setting": "glucosamine-6-phosphate [1]", "result": "2.01e-05 ± 2.1e-06", "unit": "s⁻¹"}, {"measurement": "self-cleavage kobs at 40 uM GlcN6P", "setting": "glucosamine-6-phosphate [2]", "result": "< 1e-05", "unit": "s⁻¹"}]}, {"variant": "A14G C50G", "values": [{"measurement": "kcat", "setting": "glucosamine-6-phosphate [1]", "result": "4.1e-05 ± 7.6e-06", "unit": "s⁻¹"}, {"measurement": "self-cleavage kobs at 2500 uM GlcN6P", "setting": "glucosamine-6-phosphate [3]", "result": "4.52e-05 ± 2e-05", "unit": "s⁻¹"}]}, {"variant": "G13U U31C", "values": [{"measurement": "kcat", "setting": "glucosamine-6-phosphate [1]", "result": "0.000427 ± 1.8e-05", "unit": "s⁻¹"}, {"measurement": "KM", "setting": "glucosamine-6-phosphate [4]", "result": "1040 ± 110", "unit": "µM"}, {"measurement": "self-cleavage kobs at 160 uM GlcN6P", "setting": "glucosamine-6-phosphate [5]", "result": "4.8e-05 ± 2.1e-05", "unit": "s⁻¹"}, {"measurement": "self-cleavage kobs at 640 uM GlcN6P", "setting": "glucosamine-6-phosphate [6]", "result": "0.00017 ± 2.8e-05", "unit": "s⁻¹"}, {"measurement": "self-cleavage kobs at 2500 uM GlcN6P", "setting": "glucosamine-6-phosphate [3]", "result": "0.000297 ± 3.8e-05", "unit": "s⁻¹"}, {"measurement": "self-cleavage kobs at 10000 uM GlcN6P", "setting": "glucosamine-6-phosphate [7]", "result": "0.000387 ± 5.1e-05", "unit": "s⁻¹"}]}, {"variant": "U46A C67A", "values": [{"measurement": "kcat", "setting": "glucosamine-6-phosphate [1]", "result": "0.00257 ± 0.00048", "unit": "s⁻¹"}, {"measurement": "KM", "setting": "glucosamine-6-phosphate [4]", "result": "1060 ± 330", "unit": "µM"}, {"measurement": "self-cleavage kobs at 40 uM GlcN6P", "setting": "glucosamine-6-phosphate [2]", "result": "8.65e-05 ± 2.9e-05", "unit": "s⁻¹"}, {"measurement": "self-cleavage kobs at 640 uM GlcN6P", "setting": "glucosamine-6-phosphate [6]", "result": "0.000988 ± 0.0002", "unit": "s⁻¹"}, {"measurement": "self-cleavage kobs at 2500 uM GlcN6P", "setting": "glucosamine-6-phosphate [3]", "result": "0.00266 ± 0.00097", "unit": "s⁻¹"}, {"measurement": "self-cleavage kobs at 10000 uM GlcN6P", "setting": "glucosamine-6-phosphate [7]", "result": "0.00209 ± 0.0006", "unit": "s⁻¹"}]}, {"variant": "G37A G44U A53U", "values": [{"measurement": "kcat", "setting": "glucosamine-6-phosphate [1]", "result": "9.52e-05 ± 3e-05", "unit": "s⁻¹"}, {"measurement": "self-cleavage kobs at 2500 uM GlcN6P", "setting": "glucosamine-6-phosphate [3]", "result": "6.43e-05 ± 1.9e-05", "unit": "s⁻¹"}, {"measurement": "self-cleavage kobs at 10000 uM GlcN6P", "setting": "glucosamine-6-phosphate [7]", "result": "7.31e-05 ± 2.3e-05", "unit": "s⁻¹"}]}, {"variant": "A15G C58A", "values": [{"measurement": "kcat", "setting": "glucosamine-6-phosphate [1]", "result": "0.000835 ± 8.2e-05", "unit": "s⁻¹"}, {"measurement": "KM", "setting": "glucosamine-6-phosphate [4]", "result": "5240 ± 790", "unit": "µM"}, {"measurement": "self-cleavage kobs at 160 uM GlcN6P", "setting": "glucosamine-6-phosphate [5]", "result": "2.68e-05 ± 1.2e-05", "unit": "s⁻¹"}, {"measurement": "self-cleavage kobs at 640 uM GlcN6P", "setting": "glucosamine-6-phosphate [6]", "result": "8.63e-05 ± 1e-05", "unit": "s⁻¹"}, {"measurement": "self-cleavage kobs at 2500 uM GlcN6P", "setting": "glucosamine-6-phosphate [3]", "result": "0.000303 ± 4e-05", "unit": "s⁻¹"}, {"measurement": "self-cleavage kobs at 10000 uM GlcN6P", "setting": "glucosamine-6-phosphate [7]", "result": "0.000537 ± 5.2e-05", "unit": "s⁻¹"}]}, {"variant": "G29U U69A", "values": [{"measurement": "kcat", "setting": "glucosamine-6-phosphate [1]", "result": "5.85e-05 ± 1.1e-05", "unit": "s⁻¹"}, {"measurement": "self-cleavage kobs at 640 uM GlcN6P", "setting": "glucosamine-6-phosphate [6]", "result": "3.35e-05 ± 1e-05", "unit": "s⁻¹"}, {"measurement": "self-cleavage kobs at 2500 uM GlcN6P", "setting": "glucosamine-6-phosphate [3]", "result": "6.77e-05 ± 9.3e-06", "unit": "s⁻¹"}, {"measurement": "self-cleavage kobs at 10000 uM GlcN6P", "setting": "glucosamine-6-phosphate [7]", "result": "4.84e-05 ± 1.1e-05", "unit": "s⁻¹"}]}, {"variant": "A15G C34G", "values": [{"measurement": "kcat", "setting": "glucosamine-6-phosphate [1]", "result": "< 1e-05", "unit": "s⁻¹"}, {"measurement": "self-cleavage kobs at 40 uM GlcN6P", "setting": "glucosamine-6-phosphate [2]", "result": "< 1e-05", "unit": "s⁻¹"}, {"measurement": "self-cleavage kobs at 640 uM GlcN6P", "setting": "glucosamine-6-phosphate [6]", "result": "< 1e-05", "unit": "s⁻¹"}]}, {"variant": "G59C C67G", "values": [{"measurement": "kcat", "setting": "glucosamine-6-phosphate [1]", "result": "< 1e-05", "unit": "s⁻¹"}]}, {"variant": "C34U G60A", "values": [{"measurement": "kcat", "setting": "glucosamine-6-phosphate [1]", "result": "< 1e-05", "unit": "s⁻¹"}, {"measurement": "self-cleavage kobs at 640 uM GlcN6P", "setting": "glucosamine-6-phosphate [6]", "result": "< 1e-05", "unit": "s⁻¹"}, {"measurement": "self-cleavage kobs at 10000 uM GlcN6P", "setting": "glucosamine-6-phosphate [7]", "result": "< 1e-05", "unit": "s⁻¹"}]}, {"variant": "G9C G38C C67A U69C", "values": [{"measurement": "kcat", "setting": "glucosamine-6-phosphate [1]", "result": "< 1e-05", "unit": "s⁻¹"}]}, {"variant": "A33C G59U", "values": [{"measurement": "kcat", "setting": "glucosamine-6-phosphate [1]", "result": "< 1e-05", "unit": "s⁻¹"}, {"measurement": "self-cleavage kobs at 160 uM GlcN6P", "setting": "glucosamine-6-phosphate [5]", "result": "< 1e-05", "unit": "s⁻¹"}, {"measurement": "self-cleavage kobs at 10000 uM GlcN6P", "setting": "glucosamine-6-phosphate [7]", "result": "< 1e-05", "unit": "s⁻¹"}]}, {"variant": "A15C G32C A53C", "values": [{"measurement": "kcat", "setting": "glucosamine-6-phosphate [1]", "result": "2.15e-05 ± 1.1e-06", "unit": "s⁻¹"}]}, {"variant": "A14G U31G", "values": [{"measurement": "kcat", "setting": "glucosamine-6-phosphate [1]", "result": "0.00752 ± 0.0003", "unit": "s⁻¹"}, {"measurement": "KM", "setting": "glucosamine-6-phosphate [4]", "result": "2120 ± 140", "unit": "µM"}, {"measurement": "self-cleavage kobs at 160 uM GlcN6P", "setting": "glucosamine-6-phosphate [5]", "result": "0.000539 ± 9.8e-05", "unit": "s⁻¹"}, {"measurement": "self-cleavage kobs at 640 uM GlcN6P", "setting": "glucosamine-6-phosphate [6]", "result": "0.00175 ± 0.00031", "unit": "s⁻¹"}, {"measurement": "self-cleavage kobs at 2500 uM GlcN6P", "setting": "glucosamine-6-phosphate [3]", "result": "0.0039 ± 0.00067", "unit": "s⁻¹"}, {"measurement": "self-cleavage kobs at 10000 uM GlcN6P", "setting": "glucosamine-6-phosphate [7]", "result": "0.00635 ± 0.00094", "unit": "s⁻¹"}]}, {"variant": "U31G U46C", "values": [{"measurement": "kcat", "setting": "glucosamine-6-phosphate [1]", "result": "0.000896 ± 0.00013", "unit": "s⁻¹"}, {"measurement": "KM", "setting": "glucosamine-6-phosphate [4]", "result": "1720 ± 420", "unit": "µM"}, {"measurement": "self-cleavage kobs at 40 uM GlcN6P", "setting": "glucosamine-6-phosphate [2]", "result": "3.68e-05 ± 1.6e-05", "unit": "s⁻¹"}, {"measurement": "self-cleavage kobs at 160 uM GlcN6P", "setting": "glucosamine-6-phosphate [5]", "result": "7.33e-05 ± 1.5e-05", "unit": "s⁻¹"}, {"measurement": "self-cleavage kobs at 640 uM GlcN6P", "setting": "glucosamine-6-phosphate [6]", "result": "0.00021 ± 6.8e-05", "unit": "s⁻¹"}, {"measurement": "self-cleavage kobs at 2500 uM GlcN6P", "setting": "glucosamine-6-phosphate [3]", "result": "0.000592 ± 0.00011", "unit": "s⁻¹"}, {"measurement": "self-cleavage kobs at 10000 uM GlcN6P", "setting": "glucosamine-6-phosphate [7]", "result": "0.000731 ± 0.00014", "unit": "s⁻¹"}]}, {"variant": "A14G G60C", "values": [{"measurement": "kcat", "setting": "glucosamine-6-phosphate [1]", "result": "1.11e-05 ± 3.4e-06", "unit": "s⁻¹"}]}, {"variant": "G38C C50U", "values": [{"measurement": "kcat", "setting": "glucosamine-6-phosphate [1]", "result": "< 1e-05", "unit": "s⁻¹"}, {"measurement": "self-cleavage kobs at 160 uM GlcN6P", "setting": "glucosamine-6-phosphate [5]", "result": "< 1e-05", "unit": "s⁻¹"}, {"measurement": "self-cleavage kobs at 640 uM GlcN6P", "setting": "glucosamine-6-phosphate [6]", "result": "< 1e-05", "unit": "s⁻¹"}, {"measurement": "self-cleavage kobs at 10000 uM GlcN6P", "setting": "glucosamine-6-phosphate [7]", "result": "< 1e-05", "unit": "s⁻¹"}]}, {"variant": "G32A A33U", "values": [{"measurement": "kcat", "setting": "glucosamine-6-phosphate [1]", "result": "5.7e-05 ± 3e-06", "unit": "s⁻¹"}, {"measurement": "KM", "setting": "glucosamine-6-phosphate [4]", "result": "4530 ± 700", "unit": "µM"}, {"measurement": "self-cleavage kobs at 10000 uM GlcN6P", "setting": "glucosamine-6-phosphate [7]", "result": "3.92e-05 ± 6.3e-06", "unit": "s⁻¹"}]}, {"variant": "A14C G35C", "values": [{"measurement": "kcat", "setting": "glucosamine-6-phosphate [1]", "result": "< 1e-05", "unit": "s⁻¹"}, {"measurement": "self-cleavage kobs at 40 uM GlcN6P", "setting": "glucosamine-6-phosphate [2]", "result": "< 1e-05", "unit": "s⁻¹"}, {"measurement": "self-cleavage kobs at 10000 uM GlcN6P", "setting": "glucosamine-6-phosphate [7]", "result": "< 1e-05", "unit": "s⁻¹"}]}, {"variant": "C16U A48C", "values": [{"measurement": "kcat", "setting": "glucosamine-6-phosphate [1]", "result": "0.000297 ± 6.4e-05", "unit": "s⁻¹"}, {"measurement": "KM", "setting": "glucosamine-6-phosphate [4]", "result": "3910 ± 1700", "unit": "µM"}, {"measurement": "self-cleavage kobs at 640 uM GlcN6P", "setting": "glucosamine-6-phosphate [6]", "result": "3.07e-05 ± 1.2e-05", "unit": "s⁻¹"}, {"measurement": "self-cleavage kobs at 2500 uM GlcN6P", "setting": "glucosamine-6-phosphate [3]", "result": "0.000142 ± 2.4e-05", "unit": "s⁻¹"}, {"measurement": "self-cleavage kobs at 10000 uM GlcN6P", "setting": "glucosamine-6-phosphate [7]", "result": "0.000203 ± 3.1e-05", "unit": "s⁻¹"}]}]}
